Consider 2 molecules from CN111110862A.

Test [1] has as its target 人CLDN18.2(hCLDN18.2) (human) (UniProt P56856). As to the kind of experiment: cell ELISA on fixed hCLDN18.2+cell.
For test [2] the target is unchanged. The test can be described thus: cell ELISA on fixed hCLDN18.2+cell, plateau reading.
The target is the same in test [3]. The test can be described thus: cell ELISA, hybridoma supernatant on hCLDN18.2+cell.

B1: anti-hCLDN18.2鼠源抗体mab5b (antibody, human IgG1, kappa, V domains shown)
VH: QVQLQQSGAELIGPGTSVKVSCKASGYAFSNYLIEWVKQRPEQGLEWIGLINPGSGGTNYNEKFKGKATLTADKSSSTAYMQLSSLTSDDSAVYFCARVYYGNSFAYWGQGTLVTVSA
VL: DIVMTQSPSSLTVTAGEKVTMSCKSSQSLLNSGNQKNYLTWYQQKPGQPPKLLIYWASTRESGVPDRFTGSGSGTHFTLTISSVQAEDLAVYYCQNDYFYPFTFGSGTKLEKKR
In test [1], B1 came in with an EC50 of 0.115 nM, an Emax higher than Ref above 36% and a fold better binding (EC50) than Ref above 1 fold. In test [2], this molecule gave an Emax of 1.92.

B2: 杂交瘤单克隆细胞株C13C1F1D3G6所分泌的抗体 (antibody, V domains shown)
VH: B1 VH
VL: DIVMTQSPSSLTVTAGEKVTMSCKSSQSLLNSGNQKNYLTWYQQKPGQPPKLLIYWASTRESGVPDRFTGSGSGTHFTLTISSVQAEDLAVYYCQNDYFYPFTFGSGTKLEKK
In turn, B2 came in with an ELISA读值 in test [3] of 0.889.
